This assay deals with purified folded MHC-complex (Example 34). The assay can be described thus: sandwich ELISA: W6/32 coated, detection with HRP-conjugated rabbit anti-β2m.

As for “W6/32 mouse-anti-HLA-ABC antibody (Dako M0736)”, the OD450 of wells with MHC complex relative to wells with the negative control β2m worked out at 6 fold.

For the origin of these results see US20200347103A1.
